Data on one protein can be found in doi:10.1101/2025.01.07.631770, “Backbone and Sidechain ^1H, ^15N and ^13C Resonance Assignments of a Multidrug Efflux Membrane Protein using Solution and Solid-State NMR” (bioRxiv, 2025).

The data set deals with the molecule itself. As to the kind of experiment: solid-state NMR (13C-detected MAS, 2D NCA; two sets of peaks); S64V-EmrE in POPC proteoliposomes, 25:1 lipid/EmrE monomer, pH 5.8; 1.1 GHz, MAS 25 kHz, sample temperature 10 ± 5 °C.

B1: S64V-EmrE (natural protein, E. coli, UniProt P23895 1-110, looked up)
chain: MNPYIYLGGAILAEVIGTTLMKFSEGFTRLWPSVGTIICYCASFWLLAQTLAYIPTGIAYAIWVGVGIVLISLLSWGFFGQRLDLPAIIGMMLICAGVLIINLLSRSTPH
notes: also called EmrE mutant S64V
For B1, the binding result is reported as “binds”.
